Laboratory results as given in patent US20020132976A1, “Immunogenic peptides derived from prostate-specific antigen (PSA) and uses thereof” (priority 2000, published 2002).
One block for each binder: values may come before it.

Columns and labels:
[1] = molecular target: membrane-bound HLA-A0201 molecule on T2 cells (human); assay: T2 cell HLA-A0201 stabilisation, 125.0 µM peptide, BB7.2 staining, flow cytometry; conditions: remark: other sources report otherwise
[2] = molecular target: membrane-bound HLA-A0201 molecule on T2 cells (human); assay: T2 cell HLA-A0201 stabilisation, 125.0 µM peptide, BB7.2 staining, flow cytometry; analysis did not include the 3 hr de-stabilization step; conditions: remark: other sources report otherwise

Fluorescence Index (FI) [1]: 2.7
B1: CLP-316 (peptide)
peptide: KLQCVDLHV

Fluorescence Index (FI) [2]: 0.2
B2: CLP-320 (peptide)
peptide: PLYDMSLLK
